In article PMC7809796:

Molecular target: Cdc4 (UniProt P07834)
Assay: His-Far1
Conditions: reference: wild type Far1(85-150)

Far1 85-150 (from UniProt P21268) S87 mutant (taken as S87A; not spelled out in text)
binding against the reference (sites S87): lost

Far1 85-150 (from UniProt P21268) S91 mutant (taken as S91A; not spelled out in text)
binding against the reference (sites S91): lost
